The results in this text go back to the supplement of paper PMC7877785.

± gives the uncertainty stated by the source.

The series is described as follows: self-splicing fitness, log relative to wild type (ln ratio); higher = more splicing; Tetrahymena group I intron in knt gene, E. coli kanamycin selection, DiMSum; sequences stand for … in CUCUCU…GGAGGGAAAAGUUAUCAGGCAUGCACCUGGUAGCUAGUCUUUAAACCAAUAGAUUGCAUCGGUUUAAAAGGCAAGACCGUCAAAUUGCGGGAAAGGGGUCAACAGCCGUUCAGUACCAAGUCUCAGGGGAAACUUUGAGAUGGCCUUGCAAAGGGUAUGGUAAUAAGCUGACGGACAUGGUCCUAACCACGCAGCCAAGUCCUAAGUCAACAGAUCUUCUGUUGAUAUGGAUGCAGUUCACAGACUAAAUGUCGGUCGGGGAAGAUGUAUUCUUCUCAUAAGAUAUAGUCGGACCUCUCCUUAAUGGGAGCUAGCGGAUGAAGUGAUGCAACACUGGAGCCGCUGGGAACUAAUUUGUAUGCGAAAGUAUAUUGAUUAGUUUUGGAGUACUCGUGGUCG
The procedure, abridged:
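Library with all eight P1ex-region intron nucleotides randomised, intron inside the knt kanamycin-resistance gene on pET-22b(+), in E. coli BL21(DE3). Cells grew overnight at 37°C or 30°C on LB agar with or without 25 μg/mL kanamycin (plus 100 μg/mL carbenicillin, 50 μM IPTG, 0.2% rhamnose), in six replicate transformations. Pooled colonies were amplicon-sequenced on Illumina HiSeq 2500. DiMSum fitness is the error-weighted combination of wild-type-normalised replicate fold changes, kanamycin versus none.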

Regarding CGCAAGCAAUAUUACGCGGG, the “self-splicing fitness (ln)” value is -4.14 ± 0.42 (30 °C) and -2.31 ± 0.23 (37 °C). Turning to CUGGAGCAAUAUUACGGCUA, the “self-splicing fitness (ln)” value (37 °C) was -1.11 ± 0.47. For the sequence ACUCAGCAAUAUUACGAUAC, the “self-splicing fitness (ln)” value by setting is: (30 °C) -0.894 ± 0.13; (37 °C) -0.656 ± 0.19. Turning to ACAGAGCAAUAUUACGGACG, the “self-splicing fitness (ln)” value was -3.09 ± 0.17 (30 °C) and -0.53 ± 0.33 (37 °C).

Regarding UCAGAGCAAUAUUACGCUUC, the “self-splicing fitness (ln)” value (30 °C) is -1.74 ± 0.24 and the “self-splicing fitness (ln)” value (37 °C) is -2.73 ± 0.48.

UCACAGCAAUAUUACGUGGU: the “self-splicing fitness (ln)” value (30 °C) is -4.05 ± 0.19 and the “self-splicing fitness (ln)” value (37 °C) was -3.15 ± 0.18. Regarding CUGGAGCAAUAUUACGCAUG, the “self-splicing fitness (ln)” value is -2.07 ± 0.13 (30 °C) and -0.898 ± 0.17 (37 °C). As to AAACAGCAAUAUUACGCAAA, the “self-splicing fitness (ln)” value was -2.87 ± 0.12 (30 °C) and -1.75 ± 0.1 (37 °C). GUAAAGCAAUAUUACGAGCA: the “self-splicing fitness (ln)” value reads like this: (30 °C) 0.322 ± 0.08; (37 °C) 0.673 ± 0.11. Consider UGUGAGCAAUAUUACGAAAC, for which, for the setting “37 °C”, the “self-splicing fitness (ln)” value was -1.59 ± 0.35. For UAUCAGCAAUAUUACGAACA, the “self-splicing fitness (ln)” value runs as follows: (30 °C) -0.0668 ± 0.089; (37 °C) -0.206 ± 0.096.

In the case of GCAUAGCAAUAUUACGGGUC, the “self-splicing fitness (ln)” value is -3.17 ± 0.14 (30 °C) and -2.71 ± 0.17 (37 °C). As to UGGGAGCAAUAUUACGCUAU, the “self-splicing fitness (ln)” value (30 °C) is -1.67 ± 0.29 and the “self-splicing fitness (ln)” value (37 °C) was -2.62 ± 0.38. Turning to AGCCAGCAAUAUUACGCCGA, where the note is “37 °C”, the “self-splicing fitness (ln)” value was -0.449 ± 0.29. As for UAUCAGCAAUAUUACGUCUC, the “self-splicing fitness (ln)” value reads like this: (30 °C) -2.46 ± 0.24; (37 °C) -1.13 ± 0.24. The like results for ACAGAGCAAUAUUACGACAU were, in that order, -3.246 ± 0.021 and -2.17 ± 0.036. The like results for AGUAAGCAAUAUUACGCGUU were, in that order, -3.44 ± 0.17 and -2.8 ± 0.19. With UACAAGCAAUAUUACGCUGU, where the note is “37 °C”, the “self-splicing fitness (ln)” value is -1.65 ± 0.28. AUUAAGCAAUAUUACGAUCA: the “self-splicing fitness (ln)” value runs as follows: (30 °C) -1.58 ± 0.17; (37 °C) -0.409 ± 0.14. The like results for GAUCAGCAAUAUUACGCCGG were, in that order, -1.75 ± 0.18 and -1.41 ± 0.21. On the same counts, the results for UGCGAGCAAUAUUACGAAGA are -3.24 ± 0.37 and -1.97 ± 0.28.

As for ACCAAGCAAUAUUACGGAAG, the “self-splicing fitness (ln)” value by setting is: (30 °C) -3.74 ± 0.17; (37 °C) -3.14 ± 0.19. For the sequence CGUAAGCAAUAUUACGAAGA, the “self-splicing fitness (ln)” value (30 °C) was -3.07 ± 0.31. Consider GAUAAGCAAUAUUACGGGAA, for which the “self-splicing fitness (ln)” value was -2.84 ± 0.25 (30 °C) and -1.99 ± 0.22 (37 °C).

UUUCAGCAAUAUUACGAAUA: the “self-splicing fitness (ln)” value reads like this: (30 °C) -0.788 ± 0.15; (37 °C) 0.446 ± 0.13.

As for CCUGAGCAAUAUUACGUAUG, the “self-splicing fitness (ln)” value (30 °C) is -2.38 ± 0.11 and the “self-splicing fitness (ln)” value (37 °C) is -1.56 ± 0.11. The like results for UCAUAGCAAUAUUACGUAUU were, in that order, -2.48 ± 0.22 and -2.85 ± 0.27. CACAAGCAAUAUUACGUAGU: the “self-splicing fitness (ln)” value is, setting by setting: (30 °C) -3.4 ± 0.12; (37 °C) -1.81 ± 0.11. Consider ACCGAGCAAUAUUACGACUA, for which the “self-splicing fitness (ln)” value is, setting by setting: (30 °C) -2.66 ± 0.19; (37 °C) -1.7 ± 0.17. Turning to UACCAGCAAUAUUACGUGUC, the “self-splicing fitness (ln)” value runs as follows: (30 °C) -2.04 ± 0.1; (37 °C) -2.23 ± 0.15. CGUUAGCAAUAUUACGGUUA: the “self-splicing fitness (ln)” value runs as follows: (30 °C) -1.55 ± 0.21; (37 °C) -1.66 ± 0.17. The like results for AUAUAGCAAUAUUACGUUUU were, in that order, -2.98 ± 0.22 and -1.82 ± 0.22. Regarding AUAGAGCAAUAUUACGUGCC, the “self-splicing fitness (ln)” value (30 °C) is -3.44 ± 0.41 and the “self-splicing fitness (ln)” value (37 °C) is -1.69 ± 0.4. On the same counts, the results for GUCCAGCAAUAUUACGGUUA are -0.0348 ± 0.05 and 0.165 ± 0.055. On the same counts, the results for CAUAAGCAAUAUUACGAACA are -3.64 ± 0.4 and -2.06 ± 0.38. Consider GCGGAGCAAUAUUACGACGC, for which the “self-splicing fitness (ln)” value (37 °C) was -2.45 ± 0.21. Take CUCUAGCAAUAUUACGUAGA: the “self-splicing fitness (ln)” value was -3.49 ± 0.27 (30 °C) and -1.6 ± 0.17 (37 °C). As to GGUCAGCAAUAUUACGUCGC, the “self-splicing fitness (ln)” value runs as follows: (30 °C) -0.517 ± 0.11; (37 °C) 0.282 ± 0.12.

As to GGAAAGCAAUAUUACGAAUG, the “self-splicing fitness (ln)” value by setting is: (30 °C) -3.53 ± 0.29; (37 °C) -0.816 ± 0.25. Take GGACAGCAAUAUUACGCCGU: the “self-splicing fitness (ln)” value is, setting by setting: (30 °C) -4.23 ± 0.46; (37 °C) -3.05 ± 0.26.
